Biological target: DrMoaE (MoaE of Deinococcus radiodurans, large subunit of MPT synthase) (Deinococcus radiodurans)
Experiment: SEC; gel filtration profiles of DrMoaE and DrMoaER110A; standard curve from aprotinin, RNaseA, chymotrypsinogen A, ovalbumin and BSA

stoichiometry N: 2
Substance: DrMoaE (MoaE of Deinococcus radiodurans, large subunit of MPT synthase) (natural protein)

From PMC9916421
